For orientation: Kd means the constant that tells how readily two partners part at equilibrium. Broadly, the koff is a measure of how fast the partners let go of each other. Lower therefore signals a long-lived complex. The kon is a measure of how fast the partners come together. The low end stands for slow association, the high end for fast association.

The target of one test is T1, CmnA-A2-CmnN (Saccharothrix mutabilis, UniProt A6YEH2).
T1 construct: second adenylation domain of CmnA, with MbtH-like protein CmnN, recombinant; with MbtH-like protein CmnN
T1 sequence (A6YEH2 1420-1895 limits assumed): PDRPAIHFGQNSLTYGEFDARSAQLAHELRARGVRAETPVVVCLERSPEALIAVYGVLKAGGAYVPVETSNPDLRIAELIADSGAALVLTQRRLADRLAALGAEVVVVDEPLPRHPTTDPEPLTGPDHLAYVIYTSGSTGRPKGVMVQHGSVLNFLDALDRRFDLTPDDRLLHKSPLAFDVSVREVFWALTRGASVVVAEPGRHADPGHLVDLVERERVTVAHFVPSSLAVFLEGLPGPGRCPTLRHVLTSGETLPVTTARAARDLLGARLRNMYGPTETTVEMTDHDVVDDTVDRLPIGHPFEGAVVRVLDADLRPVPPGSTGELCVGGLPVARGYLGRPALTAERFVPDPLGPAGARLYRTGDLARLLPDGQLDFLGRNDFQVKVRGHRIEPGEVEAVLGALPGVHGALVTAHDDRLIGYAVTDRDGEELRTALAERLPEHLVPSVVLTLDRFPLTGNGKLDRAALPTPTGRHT
T1 sequence (A6YEI5 1-62 partner): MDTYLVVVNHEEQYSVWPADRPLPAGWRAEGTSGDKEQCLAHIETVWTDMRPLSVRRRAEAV
Kind of test: enzyme activity assay (amino acid activation). The class given is biochemical.

Another test deals with T2, CmnA-A1–CmnN (Saccharothrix mutabilis, UniProt A6YEH2).
T2 construct: first adenylation domain (module 1) of CmnA, co-expressed with MbtH-like protein CmnN in E. coli; with MbtH-like protein CmnN
T2 sequence (A6YEH2 450-890 limits assumed): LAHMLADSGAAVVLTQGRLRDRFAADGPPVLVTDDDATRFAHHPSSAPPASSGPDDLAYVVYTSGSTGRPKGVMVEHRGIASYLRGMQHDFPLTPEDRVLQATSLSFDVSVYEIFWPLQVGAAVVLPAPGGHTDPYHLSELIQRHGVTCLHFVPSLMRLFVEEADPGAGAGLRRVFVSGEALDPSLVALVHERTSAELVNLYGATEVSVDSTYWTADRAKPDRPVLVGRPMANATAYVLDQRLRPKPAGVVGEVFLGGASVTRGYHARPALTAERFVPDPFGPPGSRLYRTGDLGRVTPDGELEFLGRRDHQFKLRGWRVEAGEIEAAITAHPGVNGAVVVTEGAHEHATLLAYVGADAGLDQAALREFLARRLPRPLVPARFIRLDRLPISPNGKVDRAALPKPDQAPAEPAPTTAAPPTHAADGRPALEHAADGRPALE
T2 sequence (A6YEI5 1-62 partner): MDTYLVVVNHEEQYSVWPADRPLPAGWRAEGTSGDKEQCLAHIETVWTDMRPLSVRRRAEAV
Briefly: in vitro loading onto CmnI-T, intact protein Q-TOF MS; adenylation activity assay. The class given is biochemical. As to conditions: ATP, Mg2+; holo-CmnI-T as acceptor.

The target of the next test is CmnA-A1–CmnN complex (Saccharothrix mutabilis subsp. capreolus, UniProt A6YEI5 1-62, An added initiator Met precedes His364 and is left out. The His-tag on CmnN is thrombin-cleaved. A6YEI5 is taken as CmnN because it is MbtH-like.). Kind of test: BLI; biolayer interferometry; which partner was immobilised and the conditions are in the Supporting Information (not shown). The following applies: both partners purified. For orientation: In BLI a coated tip is dipped into the sample, and binding shifts an interference pattern.

The target in a further test is CmnA-A2-CmnN complex (Saccharothrix mutabilis subsp. capreolus, UniProt A6YEI5 1-62, The printed limits Leu1832-Gly1896 give only 65 residues, which does not fit the stated 55.5 kDa. They are read as a digit transposition of Leu1382-Gly1896 (515 residues). An added initiator Met is le). The test is described as above. As to conditions: both partners purified.

As to `C[C@H](N)C(=O)O` [L-Ala], the “enzyme activity assay (amino acid activation)” value on CmnA-A2-CmnN is “CmnA-A2 is capable of activating both L-Ser and L-Ala”.

Regarding `NC[C@H](N)C(=O)O` [L-Dap], the “in vitro loading onto CmnI-T, intact protein Q-TOF MS; adenylation activity assa” value on CmnA-A1–CmnN was “CmnA-A1 specifically recognizes and activates the nonproteinogenic amino acid L-Dap”.

On to `N[C@@H](CO)C(=O)O` [L-Ser], for which the “enzyme activity assay (amino acid activation)” value on CmnA-A2-CmnN is “CmnA-A2 is capable of activating both L-Ser and L-Ala”.

B1: CmnI (enzyme, Saccharothrix mutabilis subsp. capreolus, UniProt A6YEI0 1-548, looked up)
chain: MTTETPATTGAPATTGAPAPPGRAEIVAAVLPVFAEVLDAPDLTPDSDFFVHGGNSLLAIRVAGRVGRRLGRQVPPAGVLKHPTPDLLAAHLEEEFRGGGAPPIPAPRAGAEADRRPSTAQERVWLLHQLDPDRLDHLVTVALDVAGTVDPAAFTAAWTAVVRRHEALRSRFVKADDDRVAVVVDAEAAPEISVLDLARFPAPVRDRLAEERVRLLRTTPIRLDTGPLARFALLRLADRRYRIELAVHHIVCDGWSLDTLLADFLDAYGRALAGRSPALPPPAVGFADYVAWERDVESSRWPDMAVRLARRFADRPADLPLPVDPVDVPAHEDGDDVTVHAPPGLAAAVERARTSFGHTALTFHLTALGVLLARITGVDDLVVAVPVAGRAQTEHEDLVGLFVNTALARVRLGGTSDVRVLLERNRDEVDELVDCQTFPFDRLVDLLGARRAGTRVPLARVSLAVQNFDDPGTPAPELGFTWQFRDPPERQSKFDLAFTVSDTDGLRLTVTYRPSLFRRATVAAWAGQYLVALEHVVRGVADPEGSAR
notes: CmnI, A domain-less NRPS module 3 (T-C didomain) of capreomycin biosynthesis, Saccharothrix mutabilis subsp. capreolus; calculated molecular weight of the apo-form construct 61 484.72 Da; also called A domain-less NRPS module CmnI; source: purified
For B1, in the test with CmnA-A1–CmnN complex, the Kd turned out to be 1.85 µM, the koff came to 0.000477 s⁻¹ and the association rate constant (kon) stood at 258 M⁻¹ s⁻¹. In the test with CmnA-A2-CmnN complex, the dissociation constant (Kd) was 4.93 µM, the koff stood at 0.000728 s⁻¹ and the on-rate constant (kon) turned out to be 148 M⁻¹ s⁻¹.
